Read-outs that look alike come from different tables or passages of the source.
Columns and labels:
[1] = target: T1, human c-fms, full length, on cells (human, UniProt P07333 20-972); assay: cell-based or functional assay
[2] = target: T2, cynomolgus monkey c-fms on primary bone marrow cells (cynomolgus monkey); assay: cell-based or functional assay
[3] = target: T1, human c-fms, full length, on cells; assay: cell-based or functional assay; remark: listed apart in the source
[4] = target: T3, monomeric human c-fms (residues 1-512)-pHis (human, UniProt P07333 20-512); assay: Biacore, low resolution; hybridoma mAb captured on anti-human IgG, monomeric c-fms-pHis analyte at 125 nM
T3 construct: Construct stated as residues 1-512; signal stated as amino acids 1-19 and left out; also called human c-fms (1-512).pHIS; monomeric c-fms
Method: Anti-human IgG was immobilized on all four flow cells of a sensor chip using amine coupling. Crude hybridoma samples were diluted into halves and captured on the anti-IgG surface. […] Sequence lineage analyses were also performed on the 29 hybridomas (see, FIG. 2).

[5] = target: T2, cynomolgus monkey c-fms on primary bone …; assay: cell-based or functional assay; remark: listed apart in the source

T3 sequence (P07333 20-512): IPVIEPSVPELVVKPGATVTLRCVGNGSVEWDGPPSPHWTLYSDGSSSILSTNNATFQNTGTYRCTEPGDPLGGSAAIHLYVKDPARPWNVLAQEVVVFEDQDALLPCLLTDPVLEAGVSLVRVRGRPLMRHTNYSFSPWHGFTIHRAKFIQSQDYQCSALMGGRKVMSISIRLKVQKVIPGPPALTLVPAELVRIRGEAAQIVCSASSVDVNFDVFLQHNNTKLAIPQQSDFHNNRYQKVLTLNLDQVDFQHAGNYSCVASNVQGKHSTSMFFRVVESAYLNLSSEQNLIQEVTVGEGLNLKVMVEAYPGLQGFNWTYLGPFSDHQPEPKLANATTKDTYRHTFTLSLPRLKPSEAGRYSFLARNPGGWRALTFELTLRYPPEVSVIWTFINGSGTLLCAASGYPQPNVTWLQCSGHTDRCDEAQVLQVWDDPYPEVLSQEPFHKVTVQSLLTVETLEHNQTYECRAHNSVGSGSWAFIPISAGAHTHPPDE
T1 sequence (P07333 20-972): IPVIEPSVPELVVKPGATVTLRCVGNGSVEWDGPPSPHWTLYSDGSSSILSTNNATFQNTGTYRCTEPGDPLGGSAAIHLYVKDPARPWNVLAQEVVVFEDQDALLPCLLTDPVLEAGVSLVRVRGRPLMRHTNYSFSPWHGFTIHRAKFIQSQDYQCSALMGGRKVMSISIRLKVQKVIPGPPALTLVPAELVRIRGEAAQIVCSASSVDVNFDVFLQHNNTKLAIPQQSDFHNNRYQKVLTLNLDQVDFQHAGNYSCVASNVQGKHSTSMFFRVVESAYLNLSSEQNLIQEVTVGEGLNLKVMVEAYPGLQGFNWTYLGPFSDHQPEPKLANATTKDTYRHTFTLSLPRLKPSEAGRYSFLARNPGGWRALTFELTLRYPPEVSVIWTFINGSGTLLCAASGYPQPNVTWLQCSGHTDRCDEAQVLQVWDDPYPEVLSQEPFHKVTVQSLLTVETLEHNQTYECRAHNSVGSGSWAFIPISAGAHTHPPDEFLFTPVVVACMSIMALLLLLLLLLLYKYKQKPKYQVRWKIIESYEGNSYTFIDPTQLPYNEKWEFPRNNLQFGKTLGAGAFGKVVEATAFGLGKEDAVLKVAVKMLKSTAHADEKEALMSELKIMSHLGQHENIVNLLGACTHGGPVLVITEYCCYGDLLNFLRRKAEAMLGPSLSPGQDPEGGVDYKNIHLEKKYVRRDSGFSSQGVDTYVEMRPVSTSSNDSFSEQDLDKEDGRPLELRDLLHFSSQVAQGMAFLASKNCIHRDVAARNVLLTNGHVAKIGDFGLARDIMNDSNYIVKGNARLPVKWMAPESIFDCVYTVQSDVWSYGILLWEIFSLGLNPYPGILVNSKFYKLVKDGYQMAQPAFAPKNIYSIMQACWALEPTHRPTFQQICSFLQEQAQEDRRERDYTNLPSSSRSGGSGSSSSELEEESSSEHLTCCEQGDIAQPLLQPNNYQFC

Row | AML-5 bioassay IC50 [1] | Human CD14+ monocytes bioassay IC50 [1] | Cynomolgus bone marrow bioassay IC50 [2] | AML-5 bioassay IC50 [3] | Human CD14+ monocytes bioassay IC50 [3] | Kd [4] | koff [4] | kon [4] | Cynomolgus bone marrow bioassay IC50 [5] | Binder
1 | 3 ng/mL | 10 ng/mL | 0.2 nM | 0.02 nM | 0.067 nM | 1.6 nM | 0.00107 s⁻¹ | 660000 M⁻¹ s⁻¹ |  | anti-c-fms hybridoma antibody 1.42 (antibody, IgG1, V domains shown, Hybridoma IgG1 (cohort 1); also called 1.42.3) VH: QVQLVQSGAEVKKPGASVKVSCKASGYTFTSYGISWVRQAPGQGLEWMGWISAYNGNTNYAQKLQGRVTMTTDTSTSTAYMELRSLRSDDTAVYYCARESWFGEVFFDYWGQGTLVTVSS VL: not shown
2 | 0.9 ng/mL | < 1 ng/mL | 0.04 nM | 0.006 nM | < 0.007 nM | 1.4 nM | 0.00113 s⁻¹ | 817000 M⁻¹ s⁻¹ | 6 ng/mL | anti-c-fms hybridoma antibody 1.2 (antibody, V domains shown, Hybridoma IgG1 (cohort 1); also called 1.2.1) VH: QVQLVQSGAEVKKPGASVKVSCKASGYTFTSYGISWVRQAPGQGLEWMGWISAYNGNTNYAQKLQGRVTMTTDTSTSTAYMELRSLRSDDTAVYYCARESWFGEVFFDYWGQGTLVTVSS VL: not shown
3 | 6 ng/mL | 10 ng/mL | 0.267 nM | 0.04 nM | 0.067 nM | 3.4 nM | 0.0014 s⁻¹ | 406000 M⁻¹ s⁻¹ | 10 ng/mL | anti-c-fms hybridoma antibody 1.30 (antibody, IgG1, V domains shown, Hybridoma IgG1 (cohort 1); also called 1.30.2; 1.30.3) VH: QVQLVQSGAEVKKPGASVKVSCKASGYTFTSYGISWVRQAPGQGLEWMGWISAYNGNTNYAQKLQGRVTMTTDTSTSTAYMELRSLRSDDTAVYYCARESWFGEVFFDYWGQGTLVTVSS VL: not shown
4 |  |  |  |  |  | 9.5 nM | 0.0016 s⁻¹ | 168000 M⁻¹ s⁻¹ |  | anti-c-fms hybridoma antibody 2.65 (antibody, IgG2, V domains shown, Hybridoma IgG2 (cohort 2); also called 2.65.2) VH: not shown VL: DIQMTQSPSSLSASVGDRVTITCQASQDINNYLNWYQQKPGKAPKLLIYDASNLETGVPSRFSGSGSGTDFTFTISSLQPEDIATYYCQQYDDLLTFGGGTKVEIK
5 |  |  |  |  |  | 23 nM | 0.00296 s⁻¹ | 129000 M⁻¹ s⁻¹ |  | anti-c-fms hybridoma antibody 1.16 (antibody, IgG1, V domains shown, Hybridoma IgG1 (cohort 1)) VH: not shown VL: DIQMTQSPSSLSASVGDRVTITCQASQDISNYLNWYQQKPGKAPKFLIYDASNLETGVPSRFSGSGSGTDFTFTISSLQPEDIATYYCQQYDNLITFGQGTRLEIK
6 |  |  |  |  |  | 24 nM | 0.00724 s⁻¹ | 300000 M⁻¹ s⁻¹ |  | anti-c-fms hybridoma antibody 2.550 (antibody, IgG2, V domains shown, Hybridoma IgG2 (cohort 2)) VH: QVQLVQSGAEVKKPGASVKVSCKASGYTLTSYGISWVRQAPGQGLEWMGWISAYNGNPNYAQKFQGRVTMTTDTSTSTAYMELRSLRSDDTAVYYCARDQGLLGFGELEGLFDYWGQGTLVTVSS VL: not shown
7 | 0.7 ng/mL | 3 ng/mL | 0.073 nM | 0.005 nM | 0.02 nM | 0.1 nM | 4.36e-05 s⁻¹ | 385000 M⁻¹ s⁻¹ | 11 ng/mL | anti-c-fms hybridoma antibody 1.109 (antibody, V domains shown, Hybridoma IgG1 (cohort 1)) VH: not shown VL: DIQMTQSPSSLSASVGDRVTITCQASQNISNFLDWYQQKPGKAPNLLIYDASDLDPGVPSRFSGSGSGTDFTFTISSLQPEDIATYYCQQYVSLPLTFGGGTKVEIK
8 | 3 ng/mL | 7 ng/mL |  | 0.02 nM | 0.047 nM | 43 nM | 0.015 s⁻¹ | 345000 M⁻¹ s⁻¹ |  | anti-c-fms hybridoma antibody 2.534 (antibody, IgG2, V domains shown, Hybridoma IgG2 (cohort 2); also called 2.534.1; 2.534.2) VH: QVQLQESGPGLVKPSQTLSLTCTVSGGSISSGGYYWSWIRQHPGKGLEWIGYISYSGDTYYNPSLKSRLTISVDTSKHQFSLRLSSVTSADTAVYYCASLDLYGDYFDYWGQGTLVTVSS VL: EIVLTQSPDFQSVTPKEKVTITCRASQYIGSSLHWYQQTPDQSPKLLINYVSQSFSGVPSRFSGSGSGTDFTLTINSLEAEDAATYYCHQSSSLPFTFGPGTKVDIK
9 |  |  |  |  |  | 6.4 nM | 0.000773 s⁻¹ | 120000 M⁻¹ s⁻¹ |  | anti-c-fms hybridoma antibody 1.13 (antibody, V domains shown, Hybridoma IgG1 (cohort 1)) VH: QVQLQESGPGLVKPSETLSLTCTVSGGSVSSGGYYWSWIRQPPGKGLEWIGYIYYSGSTNYNPSLKSRVTISVDTSKNQFSLKLSSVTAADTAVYYCAAGIAATGTLFDCWGQGTLVTVSS VL: DIQMTQSPSSLSASVGDRVTITCQASQDISNYLNWYQQKPGKAPKLLIYDASNLETGVPSRFSGSGSGTDFTFIISSLQPEDIATYYCQQFDNLPPTFGGGTKVESK
10 |  |  |  |  |  | 41 nM | 0.00215 s⁻¹ | 53100 M⁻¹ s⁻¹ |  | anti-c-fms hybridoma antibody 1.131 (antibody, IgG1, V domains shown, Hybridoma IgG1 (cohort 1); also called 1.131.1) VH: not shown VL: DNVMTQTPLSLSVTPGQPASISCKSSQSLLHSDGKTYLYWYLQKPGQPPQLLIYEASNRFSGVPDRFSGSGSGTDFTLKISRVEAEDVGVYYCMQSIQLPLTFGGGTKVEIK
11 |  |  |  |  |  | 1.2 nM | 0.000116 s⁻¹ | 98900 M⁻¹ s⁻¹ |  | anti-c-fms hybridoma antibody 1.33.1.1 (antibody, IgG1, V domains shown, Hybridoma IgG1 (cohort 1)) VH: not shown VL: DIQMTQSPSSLSASVGDRVTITCRASQSISDYLNWYQQKPGKAPNLLIYAASSLQSGVPSRFSGSGSGTDFTLTISSLQPEDFATYFCQQTYSDPFTFGPGTKVDIK
12 | 5 ng/mL | 20 ng/mL |  | 0.02 nM | 0.133 nM | 0.7 nM | 5.28e-05 s⁻¹ | 74900 M⁻¹ s⁻¹ |  | anti-c-fms hybridoma antibody 2.508 (antibody, IgG2, V domains shown, Hybridoma IgG2 (cohort 2); also called 2.508.1; 2.508.2) VH: QVQLVQSGAEVKKPGASVKVSCKVSGYTLTELSMHWVRQAPGKGLEWMGGFDPEDGETIYAQKFQGRVTMTEDTSTDTAYMELSSLRSEDTAVYYCATAGLEIRWFDPWGQGTLVTVSS VL: DIVMTQSPLSLPVTPGEPASISCRSSQSLLHSNGYNYLDWYLQKPGQSPQFLIYLGSIRASGVPDRFSGSGSGTDFALTISRVEAEDVGVYYCMQALQTPRTFGQGTKVEIK
13 |  |  |  |  |  | 14 nM | 0.00138 s⁻¹ | 100000 M⁻¹ s⁻¹ |  | anti-c-fms hybridoma antibody 2.369 (antibody, IgG2, V domains shown, Hybridoma IgG2 (cohort 2); also called 2.369.3) VH: QVQLVQSGAEVKKPGASVKVSCKVSGYTLTELSMHWVRQAPGKGLEWMGGFDPEDGETIYAQKFQGRVTMTEDTSTDTAYMELSSLRSEDTAVYYCATRAGTTLAYYYYAMDVWGQGTTVTVSS VL: DIQMTQSPSSLSASVGDRVTITCRASQSISRYLNWYQQKPGKAPNLLIHAASSLQSGVPSRFSGSGSGTDFTLTISSLQPEDFATYYCQQSYITPPSFGQGTKLEIK
14 |  |  |  |  |  | 5.5 nM | 0.000568 s⁻¹ | 103000 M⁻¹ s⁻¹ |  | anti-c-fms hybridoma antibody 1.72 (antibody, IgG1, V domains shown, Hybridoma IgG1 (cohort 1); also called 1.72.2) VH: EVQLVESGGGLVEPGGSLRLSCAASGFTFSTAWMSWVRQAPGKGLEWVGRIKSKTDGGTTDYAAPVKGRFTISRDDSKNTLYLQMNSLKNEDTAVYYCTTEGPYSNYGYYYYGVDVWGQGTTVTVSS VL: not shown
15 | 0.6 ng/mL | 2 ng/mL |  | 0.004 nM | 0.013 nM | 2.5 nM | 0.00064 s⁻¹ | 255000 M⁻¹ s⁻¹ |  | anti-c-fms hybridoma antibody 1.64 (antibody, IgG1, V domains shown, Hybridoma IgG1 (cohort 1); also called 1.64.1; 1.64.2) VH: EVQLVESGGGLVQPGGSLRLSCAASGFTFSSYDMHWVRQATGKGLEWVSGIGTAGDTYYPGSVKGRFNISRENAKNSLYLQMNSLRAGDTAVYYCAREGSWYGFDYWGQGTLVTVSS VL: EIVLTQSPGTLSLSPGERATLSCRASQSVSSGYLAYLAWYQQKPGQAPRLLIYGASSTATGIPDRFSGSGSGTDFTLTISRLEPEDFAVYYCQQYGSSPITFGQGTRLEIK
16 | 4 ng/mL | 10 ng/mL | 0.047 nM | 0.027 nM | 0.067 nM | 23 nM | 0.0055 s⁻¹ | 239000 M⁻¹ s⁻¹ | 7 ng/mL | anti-c-fms hybridoma antibody 1.66 (antibody, IgG1, V domains shown, Hybridoma IgG1 (cohort 1); also called 1.66.1; 1.66.2) VH: QVQLVESGGGVVQPGRSLRLSCAASGFTFSSYGMHWVRQAPGKGLEWVAVIWYDGSNEYYADSVKGRFTISRDNSKSTLYLQMNSLRAEDTAVYYCAHSSGNYYDMDVWGQGTTVTVSS VL: not shown
17 |  |  |  |  |  | 10 nM | 0.002 s⁻¹ | 193000 M⁻¹ s⁻¹ |  | anti-c-fms hybridoma antibody 1.90 (antibody, IgG1, V domains shown, Hybridoma IgG1 (cohort 1); also called 1.90.2) VH: QVQLVESGGGVVQPGRSLRLSCAASGFTFSSYGMHWVRQAPGKGLEWVAVIWYDGSNKYYADSVKGRFTISRDNSKNTLYLQMNSLRAEDTAVYYCASSSSNFYDMDVWGQGTTVTVSS VL: DIQMTQSPSSLSASVGDRVTITCQASQDISNYLNWYQQKPGKAPKLLIYDASNLETGVPSRFSGSGSGTDFTFTISSLQPEDIATYYCQRYDDLPITFGQGTRLEIK
18 | 1 ng/mL | < 1 ng/mL | 0.04 nM | 0.007 nM | < 0.007 nM | 4.6 nM | 0.000703 s⁻¹ | 153000 M⁻¹ s⁻¹ | 6 ng/mL | anti-c-fms hybridoma antibody 1.134 (antibody, IgG1, V domains shown, Hybridoma IgG1 (cohort 1); also called 1.134.1) VH: QVQLVESGGGVVQPGRSLRLSCAASGFTFSSYGMHWVRQAPGKGLEWVAVIWYDGSNKYYADSVKGRFTISRDNSKNTLYLQMNSLRAEDTAVYYCASSSWSYYGMDVWGQGTTVTVSS VL: DIQMTQSPSSLSASVGDRVTITCQASQDINNYLNWYQQKPGKAPKLLIYDASNLEIGVPSRFSGSGSGTDFIFTISSLQPEDIATYYCQQYDNFPFTFGGGTKVEIK
19 |  |  |  |  |  | ≤ 0.2 nM | ≤ 1e-05 s⁻¹ | 43000 M⁻¹ s⁻¹ |  | anti-c-fms hybridoma antibody 2.131 (antibody, IgG2, V domains shown, Hybridoma IgG2 (cohort 2); also called 2.131.2) VH: QVQLQESGPGLVKPSETLSLTCTVSGGSISNYYWSWIRQSAGKGLEWIGRIYTSGSTHYNPSLKSRIIMSVDTSKNQFSLKLSSVTAADTAVYYCARDRVFYGMDVWGQGTTVTVSS VL: DIQMTQSPSSLSASVGDRVTITCRASQGFSNYLAWYQQKPGKVPKLLIYAASTLQSGVPSRFSGSGSGTDFTLTISSLQPEDVATYYCQKYNSAPLTFGGGTKVEIK

Reference: patent US20090155164A1 (Amgen, published 2009)
